Experimental data: patent publication US12016898B2, “Compositions and uses of antimicrobial materials with tissue-compatible properties” (Amicrobe, Inc., priority 2012, dated 2024)

Experiments:
[1] = texture analysis profile (firmness, work of adhesion); assay type: physicochemical; settings: 1% (w/w) polypeptide and 1% (w/w) HEC in water
Source text: FIGS. 20A and 20B show A) firmness values for mixtures of 1% solutions of synthetic cationic polypeptides with 1% hydroxyethyl cellulose (HEC, Natrosol HHX) in water (FIG. 20A); and B) work of adhesion values for mixtures of 1% solutions of copolypeptides with 1% hydroxyethyl cellulose (HEC, Natrosol HHX) in water (FIG. 20B).
Values for 1% (w/w) polypeptide in water. b. Values for 1% polypeptide/1% HEC (w/w) in water. c. Interaction parameter: ΔF=Fmix(poly/HEC)−(Fpoly+FHEC). Where Fmix(poly/HEC)=firmness of 1% polypeptide/1% HEC, Fpoly=firmness of 1% polypeptide solution, and FHEC=firmness of 1% HEC (Natrosol HHX) in water. Similar treatment of data was performed for the work of adhesion interaction parameter.
A texture analysis profile has been used to determine the effects of block copolypeptide composition and hydrophobic enantiopurity on the mechanical properties of the block copolypeptide/HEC mixtures (FIGS. 20A and 20B). […] This corresponds to an interaction parameter value of 14.45 mN and an overall increase of over 170% over what would be expected from the additive contributions of the individual components. […] Hydrophobic block length was also shown to be influential.

[2] = system: S. epidermidis, P. aeruginosa (pig clinical isolate); assay: open-wound porcine treatment model; assay type: in vivo; settings: wounds contaminated, treated after 2 hrs, biopsied 4 hrs after treatment
Procedure: Each wound was contaminated with bacteria (S. epidermidis, P. aeruginosa (pig clinical isolate)). After 2 hrs, wounds were rinsed with saline and treated with 5 mL of test article or water. Test articles: K100(rac-L)20 (SEQ ID NO: 12) at 10, 2, 0.4 mg/mL, 10 mg/mL K100(rac-L)20 (SEQ ID NO: 12) and 30 mg/mL PEG 400 in water, and deionized water as a control. Gauze soaked in test article or water was placed on top of the wounds. Wounds were biopsied at 4 hrs after treatment.
Aqueous compositions that include mixtures of synthetic cationic polypeptides with two different polymers (polyethylene glycol 400 and hydroxyethyl cellulose) were both found to be effective in vivo. As depicted in FIG. 25, K100(rac-L)20 (SEQ ID NO: 12) was effective in an porcine open-wound treatment model alone and in combination with PEG 400. […] The aqueous compositions described herein can be used for any one or more treatments and/or applications, including but not limited to prevention of infections, treatment of infections, treatment for topical anti-infection, treatment for microbial decolonization, wound treatment, surgical site treatment, trauma treatment, burn treatment, treatment of diabetic foot ulcers, eye treatment, treatment of vaginal infections, treatment of urinary tract infections, hand sanitization, for coating prosthetic devices and/or implants, food preservation and solution preservation.

[3] = system: P. aeruginosa biofilms; assay: in vitro P. aeruginosa biofilm assay; assay type: cell-based; settings: 0.1-20 mg/mL, 24 hour contact time

B1: K100(rac-L)20: synthetic cationic copolypeptide: lysine segment and shorter racemic hydrophobic leucine block (peptide)
chain: KKKKKKKKKKKKKKKKKKKKKKKKKKKKKKKKKKKKKKKKKKKKKKKKKKKKKKKKKKKKKKKKKKKKKKKKKKKKKKKKKKKKKKKKKKKKKKKKKKKKLLLLLLLLLLLLLLLLLLLL
modifications: racemic leucine block; K100(rac-L)20; rac-L (101)..(120)
effect on adhesiveness / work of adhesion of mixing polypeptide with HEC [1]: no effect | effect on firmness of mixing polypeptide with HEC [1]: no effect | effectiveness in porcine open-wound treatment model [2]: effective | effectiveness against P. aeruginosa biofilms in vitro [3]: effective

B2: K100L20: synthetic cationic copolypeptide: lysine segment and leucine segment (peptide)
chain: B1 chain
modifications: K100L20
effect on adhesiveness / work of adhesion of mixing polypeptide with HEC [1]: antagonistic | effect on firmness of mixing polypeptide with HEC [1]: increased firmness

B3: K100: lysine homopolypeptide (peptide)
chain: KKKKKKKKKKKKKKKKKKKKKKKKKKKKKKKKKKKKKKKKKKKKKKKKKKKKKKKKKKKKKKKKKKKKKKKKKKKKKKKKKKKKKKKKKKKKKKKKKKKK
modifications: K100
notes: lysine homopolypeptide
effect on adhesiveness / work of adhesion of mixing polypeptide with HEC [1]: failed to enhance | effect on firmness of mixing polypeptide with HEC [1]: failed to enhance
